Columns and labels:
BHET = assay: Proxy for plastic degradation [Released monomer concentration (HPLC/LC-MS) (MHET)]; conditions: pH 7
PET [1] = assay: Proxy for plastic degradation [Released monomer concentration (HPLC/LC-MS) (TPA+MHET+BHET+Total aromatic products)]; conditions: pH 7, 0 h
p-NP-C4 = conditions: pH 6; 70 °C
[2] = Melting temperature [DSF / Thermofluor]; conditions: pH 8.5
pNPB [3] = assay: Proxy for plastic degradation [Residual activity]; conditions: pH 7
pNPB [4] = assay: Proxy for plastic degradation [Relative activity]; conditions: pH 7
pNPB [5] = assay: Proxy for plastic degradation [Specific activity]
PET [6] = assay: Proxy for plastic degradation [Released monomer concentration (HPLC/LC-MS) (TPA)]; conditions: pH 7
PET [7] = assay: Proxy for plastic degradation [Released monomer concentration (HPLC/LC-MS) (BHET)]; conditions: pH 7
PET [8] = assay: Proxy for plastic degradation [Released monomer concentration (HPLC/LC-MS) (MHET)]; conditions: pH 7
PET [9] = assay: Proxy for plastic degradation [Released monomer concentration (HPLC/LC-MS) (TPA+MHET+BHET)]; conditions: pH 7
[10] = 30 °C, 0 h, part of the chain shown
[11] = 30 °C, 48 h, part of the chain shown
[12] = 30 °C, 72 h, part of the chain shown
[13] = 30 °C, 96 h, part of the chain shown

B1: unnamed (protein)
chain: MQTNPYARGPNPTAASLEASAGPFTVRSFTVSRPSGYGAGTVYYPTNAGGTVGAIAIVPGYTARQSSIKWWGPRLASHGFVVITIDTNSTLDQPSSRSSQQMAALRQVASLNGTSSSPIYGKVDTARMGVMGWSMGGGGSLISAANNPSLKAAAPQAPWDSSTNFSSVTVPTLIFACENDSIAPVNSSALPIYDSMSRNAKQFLEINGGSHSCANSGNSNQALIGKKGVAWMKRFMDNDTRYSTFACENPNSTRVSDFRTANCSLEHHHHHH
With B1 the “Proxy for plastic degradation” value (BHET; 30 °C, 0 h) was 0 µM, the “Proxy for plastic degradation” value (BHET; 30 °C, 20 h) was 12 µM and the “Proxy for plastic degradation” value (BHET; 30 °C, 40 h) was 20 µM. For the same protein, the “Proxy for plastic degradation” value (BHET; 30 °C, 60 h) was 25 µM, the “Proxy for plastic degradation” value (BHET; 50 °C, 0 h) was 0 µM and the “Proxy for plastic degradation” value (BHET; 50 °C, 20 h) was 5 µM. The “Proxy for plastic degradation” value (BHET; 50 °C, 40 h) was 5.5 µM, the “Proxy for plastic degradation” value (BHET; 50 °C, 60 h) was 5.5 µM and the “Proxy for plastic degradation” value (BHET; 70 °C, 0 h) was 0 µM. The “Proxy for plastic degradation” value (BHET; 70 °C, 20 h) was 2.5 µM, the “Proxy for plastic degradation” value (BHET; 70 °C, 40 h) was 3 µM and the “Proxy for plastic degradation” value (BHET; 70 °C, 60 h) was 2 µM. The “Proxy for plastic degradation” value (PET [1]; 30 °C) was 0 µM.

B2: unnamed (protein)
chain: MKIVKTLLTVIFSVLMVVSMAHAVQIGPNPTSTLLNGDGPFAVSSSSVSSLACGTGCAGGTVYYPTTAGQYGVIAVCPGYTGTSSSIAWFARRLATHGFVTIAMDTNSTLDYPSSRATQLAAALRYLINSSSSTIRSRIRTADRGVAGHSMGGGGTLIASADDSTLRVGIPMTPWNTYTSFSSVRVPQMIFGADGDTIASASSHARPFYNSITQAEKAYALLNDASHFTPNSTDQRIGRYGVAFAKRFVDGDTRYNPFLCGAEHTAYATSSRFDTYLSNCPY
B2 gave a Km (p-NP-C4) of 80 µM, a kcat (p-NP-C4) of 447 s⁻¹ and a kcat/Km (p-NP-C4) of 5.59e+06 M⁻¹ s⁻¹. The Melting temperature [2] was 82 °C, the “Proxy for plastic degradation” value (pNPB [3]; 50 °C, 0 h) was 100% and the “Proxy for plastic degradation” value (pNPB [3]; 50 °C, 0.33 h) was 54%. The “Proxy for plastic degradation” value (pNPB [3]; 50 °C, 0.5 h) was 38%, the “Proxy for plastic degradation” value (pNPB [3]; 50 °C, 1 h) was 49% and the “Proxy for plastic degradation” value (pNPB [3]; 50 °C, 2 h) was 57%. The “Proxy for plastic degradation” value (pNPB [3]; 50 °C, 3 h) was 46%, the “Proxy for plastic degradation” value (pNPB [3]; 50 °C, 6 h) was 65% and the “Proxy for plastic degradation” value (pNPB [3]; 50 °C, 24 h) was 52%. The “Proxy for plastic degradation” value (pNPB [3]; 50 °C, 48 h) was 55%, the “Proxy for plastic degradation” value (pNPB [3]; 50 °C, 72 h) was 43% and the “Proxy for plastic degradation” value (pNPB [3]; 50 °C, 96 h) was 30%. For the same protein, the “Proxy for plastic degradation” value (pNPB [3]; 70 °C, 0 h) was 100%, the “Proxy for plastic degradation” value (pNPB [3]; 70 °C, 0.33 h) was 54% and the “Proxy for plastic degradation” value (pNPB [3]; 70 °C, 0.5 h) was 51%. For the same protein, the “Proxy for plastic degradation” value (pNPB [3]; 70 °C, 2 h) was 70%, the “Proxy for plastic degradation” value (pNPB [3]; 70 °C, 3 h) was 51% and the “Proxy for plastic degradation” value (pNPB [3]; 70 °C, 6 h) was 50%. For the same protein, the “Proxy for plastic degradation” value (pNPB [3]; 70 °C, 24 h) was 52%, the “Proxy for plastic degradation” value (pNPB [3]; 70 °C, 48 h) was 47% and the “Proxy for plastic degradation” value (pNPB [3]; 70 °C, 72 h) was 20%. The “Proxy for plastic degradation” value (pNPB [3]; 70 °C, 96 h) was 17%, the “Proxy for plastic degradation” value (pNPB [4]; 50 °C, 0 h) was 100% and the “Proxy for plastic degradation” value (pNPB [4]; 50 °C, 0.33 h) was 55%. The “Proxy for plastic degradation” value (pNPB [4]; 50 °C, 0.5 h) was 38%, the “Proxy for plastic degradation” value (pNPB [4]; 50 °C, 1 h) was 50% and the “Proxy for plastic degradation” value (pNPB [4]; 50 °C, 2 h) was 60%. The “Proxy for plastic degradation” value (pNPB [4]; 50 °C, 4 h) was 48%, the “Proxy for plastic degradation” value (pNPB [4]; 50 °C, 6 h) was 65% and the “Proxy for plastic degradation” value (pNPB [4]; 50 °C, 24 h) was 50%. The “Proxy for plastic degradation” value (pNPB [4]; 50 °C, 48 h) was 52%, the “Proxy for plastic degradation” value (pNPB [4]; 50 °C, 72 h) was 40% and the “Proxy for plastic degradation” value (pNPB [4]; 50 °C, 96 h) was 35%. For the same protein, the “Proxy for plastic degradation” value (pNPB [4]; 70 °C, 0 h) was 100%, the “Proxy for plastic degradation” value (pNPB [4]; 70 °C, 0.33 h) was 55% and the “Proxy for plastic degradation” value (pNPB [4]; 70 °C, 0.5 h) was 52%. For the same protein, the “Proxy for plastic degradation” value (pNPB [4]; 70 °C, 1 h) was 50%, the “Proxy for plastic degradation” value (pNPB [4]; 70 °C, 2 h) was 70% and the “Proxy for plastic degradation” value (pNPB [4]; 70 °C, 4 h) was 50%. For the same protein, the “Proxy for plastic degradation” value (pNPB [4]; 70 °C, 6 h) was 48%, the “Proxy for plastic degradation” value (pNPB [4]; 70 °C, 24 h) was 50% and the “Proxy for plastic degradation” value (pNPB [4]; 70 °C, 48 h) was 40%. For the same protein, the “Proxy for plastic degradation” value (pNPB [4]; 70 °C, 72 h) was 20%, the “Proxy for plastic degradation” value (pNPB [4]; 70 °C, 96 h) was 18% and the “Proxy for plastic degradation” value (pNPB [5]; pH 4) was 0 U/mg. For the same protein, the “Proxy for plastic degradation” value (pNPB [5]; pH 5) was 225 U/mg, the “Proxy for plastic degradation” value (pNPB [5]; pH 7) was 200 U/mg and the “Proxy for plastic degradation” value (pNPB [5]; pH 7, 50 °C) was 500 U/mg. The “Proxy for plastic degradation” value (pNPB [5]; pH 9) was 150 U/mg, the “Proxy for plastic degradation” value (pNPB [5]; pH 10) was 75 U/mg and the “Proxy for plastic degradation” value (PET [6]; 30 °C, 0 h) was 0 µM. The “Proxy for plastic degradation” value (PET [6]; 50 °C, 0 h) was 0 µM, the “Proxy for plastic degradation” value (PET [6]; 50 °C, 48 h) was 140 µM and the “Proxy for plastic degradation” value (PET [6]; 50 °C, 96 h) was 330 µM. The “Proxy for plastic degradation” value (PET [6]; 70 °C, 0 h) was 0 µM, the “Proxy for plastic degradation” value (PET [6]; 70 °C, 24 h) was 180 µM and the “Proxy for plastic degradation” value (PET [7]; 30 °C, 0 h) was 0 µM. The “Proxy for plastic degradation” value (PET [7]; 50 °C, 0 h) was 0 µM, the “Proxy for plastic degradation” value (PET [7]; 50 °C, 48 h) was 10 µM and the “Proxy for plastic degradation” value (PET [7]; 70 °C, 0 h) was 0 µM. The “Proxy for plastic degradation” value (PET [7]; 70 °C, 24 h) was 5 µM, the “Proxy for plastic degradation” value (PET [7]; 70 °C, 48 h) was 3 µM and the “Proxy for plastic degradation” value (PET [7]; 70 °C, 72 h) was 2 µM. The “Proxy for plastic degradation” value (BHET; 30 °C, 0 h) was 0 µM, the “Proxy for plastic degradation” value (BHET; 30 °C, 40 h) was 4 µM and the “Proxy for plastic degradation” value (BHET; 30 °C, 60 h) was 5 µM. For the same protein, the “Proxy for plastic degradation” value (BHET; 50 °C, 0 h) was 0 µM, the “Proxy for plastic degradation” value (BHET; 70 °C, 0 h) was 0 µM and the “Proxy for plastic degradation” value (PET [8]; 30 °C, 0 h) was 0 µM. The “Proxy for plastic degradation” value (PET [8]; 30 °C, 24 h) was 240 µM, the “Proxy for plastic degradation” value (PET [8]; 50 °C, 0 h) was 0 µM and the “Proxy for plastic degradation” value (PET [8]; 70 °C, 0 h) was 0 µM. For the same protein, the “Proxy for plastic degradation” value (PET [8]; 70 °C, 24 h) was 180 µM, the “Proxy for plastic degradation” value (PET [9]; 30 °C, 0 h) was 0 µM and the “Proxy for plastic degradation” value (PET [9]; 30 °C, 24 h) was 320 µM. The “Proxy for plastic degradation” value (PET [9]; 30 °C, 48 h) was 380 µM, the “Proxy for plastic degradation” value (PET [9]; 30 °C, 72 h) was 390 µM and the “Proxy for plastic degradation” value (PET [9]; 30 °C, 96 h) was 400 µM. The “Proxy for plastic degradation” value (PET [9]; 50 °C, 0 h) was 0 µM, the “Proxy for plastic degradation” value (PET [9]; 50 °C, 24 h) was 500 µM and the “Proxy for plastic degradation” value (PET [9]; 50 °C, 48 h) was 620 µM. The “Proxy for plastic degradation” value (PET [9]; 50 °C, 72 h) was 630 µM, the “Proxy for plastic degradation” value (PET [9]; 50 °C, 96 h) was 700 µM and the “Proxy for plastic degradation” value (PET [9]; 70 °C, 0 h) was 0 µM. For the same protein, the “Proxy for plastic degradation” value (PET [9]; 70 °C, 24 h) was 370 µM, the “Proxy for plastic degradation” value (PET [9]; 70 °C, 48 h) was 410 µM and the “Proxy for plastic degradation” value (PET [9]; 70 °C, 72 h) was 405 µM. The “Proxy for plastic degradation” value (PET [9]; 70 °C, 96 h) was 410 µM, the “Proxy for plastic degradation” value (PET [1]; 30 °C) was 0 µM and the “Proxy for plastic degradation” value (PET [1]; 50 °C) was 0 µM. For the same protein, the “Proxy for plastic degradation” value (PET [1]; 70 °C) was 0 µM.

B3: unnamed (protein)
chain: MNFPRASRLMQAAVLGGLMAVSAAATAQTNPYARGPNPTAASLEASAGPFTVRSFTVSRPSGYGAGTVYYPTNAGGTVGAIAIVPGYTARQSSIKWWGPRLASHGFVVITIDTNSTLDQPSSRSSQQMAALRQVASLNGTSSSPIYGKVDTARMGVMGWSMGGGGSLISAANNPSLKAAAPQAPWDSSTNFSSVTVPTLIFACENDSIAPVNSSALPIYDSMSRNAKQFLEINGGSHSCANSGNSNQALIGKKGVAWMKRFMDNDTRYSTFACENPNSTRVSDFRTANCS
In the case of B3, the “Proxy for plastic degradation” value (PET [6]; [10]) is reported as 0 µM, the “Proxy for plastic degradation” value (PET [6]; [11]) is reported as 60 µM and the “Proxy for plastic degradation” value (PET [7]; [10]) is reported as 0 µM. The “Proxy for plastic degradation” value (PET [7]; [12]) was 26 µM, the “Proxy for plastic degradation” value (BHET; [10]) was 0 µM and the “Proxy for plastic degradation” value (BHET; 30 °C, 20 h, part of the chain shown) was 12 µM. For the same protein, the “Proxy for plastic degradation” value (BHET; 30 °C, 40 h, part of the chain shown) was 19 µM, the “Proxy for plastic degradation” value (BHET; 30 °C, 60 h, part of the chain shown) was 24 µM and the “Proxy for plastic degradation” value (BHET; 50 °C, 0 h, part of the chain shown) was 0 µM. For the same protein, the “Proxy for plastic degradation” value (BHET; 50 °C, 40 h, part of the chain shown) was 5.9 µM, the “Proxy for plastic degradation” value (BHET; 50 °C, 60 h, part of the chain shown) was 5.6 µM and the “Proxy for plastic degradation” value (BHET; 70 °C, 0 h, part of the chain shown) was 0 µM. The “Proxy for plastic degradation” value (BHET; 70 °C, 20 h, part of the chain shown) was 2.3 µM, the “Proxy for plastic degradation” value (BHET; 70 °C, 40 h, part of the chain shown) was 3 µM and the “Proxy for plastic degradation” value (BHET; 70 °C, 60 h, part of the chain shown) was 1.85 µM. The “Proxy for plastic degradation” value (BHET; part of the chain shown) was 4 µM, the “Proxy for plastic degradation” value (PET [8]; [10]) was 0 µM and the “Proxy for plastic degradation” value (PET [8]; [11]) was 505 µM. The “Proxy for plastic degradation” value (PET [8]; [13]) was 460 µM, the “Proxy for plastic degradation” value (PET [9]; [10]) was 0 µM and the “Proxy for plastic degradation” value (PET [9]; 30 °C, 24 h, part of the chain shown) was 580 µM. The “Proxy for plastic degradation” value (PET [9]; [11]) was 590 µM, the “Proxy for plastic degradation” value (PET [9]; [12]) was 600 µM and the “Proxy for plastic degradation” value (PET [9]; [13]) was 520 µM.

— the PETadex activity labels (doi:10.3390/ijms25158120)
